Consider 14 molecules from PMC6426329 (Journal of immunology (Baltimore, Md. : 1950), 2018).

“Also recorded” adds a separate entry of the source.

The target of one test is Recombinant DRB4 protein (DRA1/B4*01:01) (human) (UniProt P01903). Briefly: peptide binding competition assay.
Details: not given
With GAD65 265–284 peptide, the IC50 was found to be 10 µM.

On to PGGAISNMYAMMIARFKMFP [GAD65 241–260 peptide], for which the IC50 worked out at 0.6 µM.

With ATHQDIDFLIEEIERLGQDL [GAD65 566–585 peptide], the IC50 worked out at 12 µM.

LRTLEDNEERMSRLSKVAPV [GAD65 513–532 peptide]: the IC50 is 5.9 µM.

In the case of VAPVIKARMMEYGTTMVSYQ [GAD65 529–548 peptide], the IC50 stood at 2.8 µM.

Consider ICKKYKIWMHVDAAWGGGLL [GAD65 353–372 peptide], for which the IC50 stood at 0.9 µM.

Take DERGKMIPSDLERRILEAKQ [GAD65 305–324 peptide]: the IC50 is 29 µM.

With SDLERRILEAKQKGFVPFLV [GAD65 313–332 peptide], the IC50 was determined as 22 µM.

Turning to IAPVFVLLEYVTLKKMREII [GAD65 209–228 peptide], the IC50 was found to be 21 µM.

HVDVFKLWLMWRAKGTTGFE [GAD65 449–468 peptide]: the IC50 stood at 32 µM.

For the molecule NTNMFTYEIAPVFVLLEYVT [GAD65 201–220 peptide], the IC50 was determined as 1.2 µM.

On to KVNFFRMVISNPAATHQDID [GAD65 553–572 peptide], for which the IC50 worked out at 7.8 µM.

As for DVMNILLQYVVKSFDRSTKV [GAD65 113–132 peptide], the IC50 was found to be 1.4 µM.

In another test the target is DRB4 protein (Homo sapiens, UniProt P01903+P13762, G164S). Kind of test: Peptide binding competition assay. Conditions: in vitro competition assay.
For the molecule “PPI 12–23: truncated version of the PPI 9–28 peptide (ALLALWGPDPAA)”, the “Binding to DRB4 (in words)” value is “able to bind; also recorded: detectable binding”.

What is called IC50 is the concentration that inhibits the measured activity by half.
